Experimental data reported in patent US20150359907A1 (GENISPHERE, published 2015).
Ends that are not written are not given here.

Biological target: T1, transferrin receptor (TfR/CD71) on TfR-expressing LAPC-4 cells (human, UniProt P02786 1-760)
T1 construct: whole, on cells
Experiment: binding of dendrimer to cells in vitro; method not detailed

T1 sequence (P02786 whole entry): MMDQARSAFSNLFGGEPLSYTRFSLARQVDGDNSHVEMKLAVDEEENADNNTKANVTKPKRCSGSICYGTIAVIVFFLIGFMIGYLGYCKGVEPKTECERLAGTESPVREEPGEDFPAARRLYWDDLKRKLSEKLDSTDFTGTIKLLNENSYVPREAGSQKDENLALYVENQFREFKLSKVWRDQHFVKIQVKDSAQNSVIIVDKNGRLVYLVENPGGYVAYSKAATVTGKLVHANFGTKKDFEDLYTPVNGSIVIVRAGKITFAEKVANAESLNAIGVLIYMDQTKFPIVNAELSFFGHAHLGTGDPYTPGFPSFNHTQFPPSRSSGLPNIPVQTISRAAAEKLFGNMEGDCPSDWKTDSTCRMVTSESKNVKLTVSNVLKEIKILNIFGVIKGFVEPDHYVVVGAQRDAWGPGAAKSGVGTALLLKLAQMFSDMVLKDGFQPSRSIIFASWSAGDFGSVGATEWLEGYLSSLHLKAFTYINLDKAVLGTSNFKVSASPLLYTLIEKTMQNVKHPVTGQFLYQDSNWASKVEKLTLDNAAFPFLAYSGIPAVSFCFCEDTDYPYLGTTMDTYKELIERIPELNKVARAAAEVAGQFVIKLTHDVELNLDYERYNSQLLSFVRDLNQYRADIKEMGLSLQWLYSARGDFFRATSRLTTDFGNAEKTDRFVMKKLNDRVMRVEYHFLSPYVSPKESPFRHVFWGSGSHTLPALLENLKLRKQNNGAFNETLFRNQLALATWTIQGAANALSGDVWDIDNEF

B1: TfR peptide-derivatized dendrimer (transferrin receptor (TfR/CD71) targeting peptide THRPPMWSPVWP on a 2-layer DNA dendrimer) (peptide)
peptide: THRPPMWSPVWP
modifications: also: coupled to oligonucleotide cplCap03 on a DNA dendrimer, site not given here
notes: The peptide-oligonucleotide conjugate was hybridised to capture oligonucleotides on a Cy3-labelled 2-layer DNA dendrimer carrying a ligated plasmid; About 2-5 peptides per dendrimer molecule; The protein part is only the 12-mer peptide; also called TfR targeting peptide; 2n-Cy3 3DNA-TfR peptide-K5/CFP
binding result: binds
